In publication PMC7666158, “Co-regulation of the transcription controlling ATF2 phosphoswitch by JNK and p38” (Nature Communications, 2020):

Key:
pp-p38 (activated, …) [1] = molecular target: T1, pp-p38 (activated, double-phosphorylated p38alpha) (human, UniProt Q16539 1-360, double-phosphorylated on the activation loop (pp-p38; T180/Y182 as named for the anti-pp-p38 antibody; pY182 in Fig. 5b)); experiment: in vitro kinase assay fitted with a kinetic model; 5 nM pp-JNK or pp-p38, MBP-ATF2(19-100) substrate 0.5-100 uM, 5 mM ATP, kinase buffer; p-T71 and p-T69/T71 by quantitative dot-blots; binding rates (kon, koff) and reaction rates fitted simultaneously with the BioNetGen model (PyBioNetFit); conditions: both partners purified
T1 construct: human p38alpha (MAPK14), phosphorylated form; also called pp-p38α; source: E. coli, co-expressed with constitutively active GST-tagged MAP2Ks, purified

pp-p38 (activated, …) [2] = molecular target: T1, pp-p38 (activated, …); experiment: as above; conditions: both partners purified; remark: listed apart in the source

T1 sequence (Q16539 whole entry): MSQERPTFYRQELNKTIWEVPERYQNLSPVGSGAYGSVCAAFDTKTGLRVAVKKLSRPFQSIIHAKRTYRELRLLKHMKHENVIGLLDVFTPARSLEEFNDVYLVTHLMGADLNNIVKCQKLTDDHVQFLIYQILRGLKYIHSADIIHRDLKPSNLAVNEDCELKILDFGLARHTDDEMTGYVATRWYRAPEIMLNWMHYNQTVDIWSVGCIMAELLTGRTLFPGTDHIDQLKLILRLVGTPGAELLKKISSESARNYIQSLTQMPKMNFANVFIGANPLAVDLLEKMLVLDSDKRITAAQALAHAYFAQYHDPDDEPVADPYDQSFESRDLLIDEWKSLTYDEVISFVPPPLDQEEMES

koff (pp-p38 (activated, …) [1]): 429 s⁻¹
kon (pp-p38 (activated, …) [1]): 1.72e+07 M⁻¹ s⁻¹
Kd (pp-p38 (activated, …) [2]): ~25 µM
B1: MBP-ATF2(19-100)-WT (domain or fragment, human, UniProt P15336-1 19-100, looked up)
chain: MSDDKPFLCTAPGCGQRFTNEDHLAVHKHKHEMTLKFGPARNDSVIVADQTPTPTRFLKNCEEVGLFNELASPFENEFKKAS
notes: A TEV site lies between MBP and ATF2; also called MBP-ATF2-His6; ATF2 TAD; source: E. coli BL21(DE3), purified (Ni-NTA, maltose resin); not shown: MBP, N-terminal, kept; His6, C-terminal, kept
